Target: T1, GST-pRb (non-acetylated), P06400
T1 chain: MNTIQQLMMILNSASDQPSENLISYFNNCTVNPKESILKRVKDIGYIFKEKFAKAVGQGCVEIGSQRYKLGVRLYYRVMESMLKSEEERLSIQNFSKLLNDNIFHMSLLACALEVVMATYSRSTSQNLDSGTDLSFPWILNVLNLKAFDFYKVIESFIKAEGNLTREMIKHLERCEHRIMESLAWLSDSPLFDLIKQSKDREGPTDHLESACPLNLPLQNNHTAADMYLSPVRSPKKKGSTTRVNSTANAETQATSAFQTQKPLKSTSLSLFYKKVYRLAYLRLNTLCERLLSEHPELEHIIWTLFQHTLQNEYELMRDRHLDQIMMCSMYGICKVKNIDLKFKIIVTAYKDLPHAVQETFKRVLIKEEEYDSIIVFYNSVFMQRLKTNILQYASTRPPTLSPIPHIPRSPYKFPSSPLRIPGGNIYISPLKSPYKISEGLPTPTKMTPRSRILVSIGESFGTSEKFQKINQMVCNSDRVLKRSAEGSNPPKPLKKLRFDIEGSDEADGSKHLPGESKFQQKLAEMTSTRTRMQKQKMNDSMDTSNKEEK

B1: his-tagged p300 1195-1673 (protein)
chain: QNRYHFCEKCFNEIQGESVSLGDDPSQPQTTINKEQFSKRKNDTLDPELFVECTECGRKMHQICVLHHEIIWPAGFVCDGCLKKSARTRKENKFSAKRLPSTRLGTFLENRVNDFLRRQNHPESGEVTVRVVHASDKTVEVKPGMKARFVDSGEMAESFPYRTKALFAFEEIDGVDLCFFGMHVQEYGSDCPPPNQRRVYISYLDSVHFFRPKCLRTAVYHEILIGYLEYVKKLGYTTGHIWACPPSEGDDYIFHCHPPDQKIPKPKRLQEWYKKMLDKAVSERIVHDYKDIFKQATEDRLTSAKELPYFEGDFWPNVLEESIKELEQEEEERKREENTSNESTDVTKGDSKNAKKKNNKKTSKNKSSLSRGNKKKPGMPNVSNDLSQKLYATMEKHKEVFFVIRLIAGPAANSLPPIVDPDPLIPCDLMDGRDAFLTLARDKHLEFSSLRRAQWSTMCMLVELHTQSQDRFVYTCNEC
in vitro acetylation of GST-pRb with 14C acetyl CoA: GST-pRb could be acetylated by p300
